Measured values reported in patent US20260008830A1 (FUNDACI CENTRE DE REGULACI GEN MICA, published 2026).

T1: IL-10 receptors R1 and R2 on HEK-Blue IL-10 reporter cells (UniProt Q13651 22-578; Q08334 20-325, limits assumed)
T1 sequence (looked up) 1: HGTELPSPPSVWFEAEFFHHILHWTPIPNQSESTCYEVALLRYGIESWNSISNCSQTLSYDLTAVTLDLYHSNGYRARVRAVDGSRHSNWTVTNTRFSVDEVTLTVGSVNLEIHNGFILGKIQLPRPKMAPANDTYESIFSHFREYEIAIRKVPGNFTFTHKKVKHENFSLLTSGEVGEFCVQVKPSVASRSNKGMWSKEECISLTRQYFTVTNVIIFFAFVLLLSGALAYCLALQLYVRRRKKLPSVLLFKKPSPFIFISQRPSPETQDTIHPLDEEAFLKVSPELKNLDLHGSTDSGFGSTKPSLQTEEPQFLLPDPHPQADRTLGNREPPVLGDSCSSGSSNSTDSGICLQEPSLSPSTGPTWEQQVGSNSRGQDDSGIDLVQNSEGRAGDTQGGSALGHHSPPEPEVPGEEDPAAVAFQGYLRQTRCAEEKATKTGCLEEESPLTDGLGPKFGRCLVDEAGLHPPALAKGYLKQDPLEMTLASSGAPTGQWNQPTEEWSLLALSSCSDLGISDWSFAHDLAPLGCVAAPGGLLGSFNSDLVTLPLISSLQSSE
T1 sequence (looked up) 2: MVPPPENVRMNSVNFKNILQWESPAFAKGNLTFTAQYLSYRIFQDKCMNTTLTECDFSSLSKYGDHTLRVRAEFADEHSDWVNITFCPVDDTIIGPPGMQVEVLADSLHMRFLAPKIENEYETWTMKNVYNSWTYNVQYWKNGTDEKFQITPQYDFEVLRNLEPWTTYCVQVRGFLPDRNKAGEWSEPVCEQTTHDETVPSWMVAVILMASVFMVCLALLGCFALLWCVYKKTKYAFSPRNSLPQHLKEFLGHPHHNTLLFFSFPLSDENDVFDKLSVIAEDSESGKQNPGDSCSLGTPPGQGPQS

B1: Mut3 (IL-10 D28E, S31K, N45S, T155M, N18I, N92I, K99N) (ligand)
chain: MSPGQGTQSENSCTHFPGILPNMLRDLREAFKRVKTFFQMKDQLDSLLLKESLLEDFKGYLGCQALSEMIQFYLEEVMPQAENQDPDIKAHVISLGENLNTLRLRLRRCHRFLPCENKSKAVEQVKNAFNKLQEKGIYKAMSEFDIFINYIEAYMMMKIRN
B2: MutSC1 (foldikine_10, single chain dimeric IL-10) (ligand)
chain: MTQSENSCTHFPGNLPNMLRDLRDAFSRVKTFFQMKDQLDNLLLKESLLEDFKGYLGCQALSEMIQFYLEEVMPQAENQDPDIKAHVNSLGENLKTLRLRLRRCHRFLPCENKSKAVEQVKNAFNKLQEKGIYKAMSEFDIFINYIEAYMTMNNGGLDYLPNMLRDLRDAFSRVKTFFQMKDQLDNLLLKESLLEDFKGYLGCQALSEMIQFYLEEVMPQAENQDPDIKAHVNSLGENLKTLRLRLRRNHRFLPCENKSKAVEQVKNAFNKLQEKGIYKAMSEFDIFINYIEAYMTMKIRN
B3: MutSC2 (MutSC1 with the Mut3 point mutations) (ligand)
chain: MTQSENSCTHFPGILPNMLRDLREAFKRVKTFFQMKDQLDSLLLKESLLEDFKGYLGCQALSEMIQFYLEEVMPQAENQDPDIKAHVISLGENLNTLRLRLRRCHRFLPCENKSKAVEQVKNAFNKLQEKGIYKAMSEFDIFINYIEAYMMMNNGGLDYLPNMLRDLREAFKRVKTFFQMKDQLDSLLLKESLLEDFKGYLGCQALSEMIQFYLEEVMPQAENQDPDIKAHVISLGENLNTLRLRLRRNHRFLPCENKSKAVEQVKNAFNKLQEKGIYKAMSEFDIFINYIEAYMMMKIRN
B4: MutM (engineered monomeric IL-10 with an inserted polyGly loop between Asn116 and Lys117) (ligand)
chain: MSPGQGTQSENSCTHFPGNLPNMLRDLRDAFSRVKTFFQMKDQLDNLLLKESLLEDFKGYLGCQALSEMIQFYLEEVMPQAENQDPDIKAHVNSLGENLKTLRLRLRRCHRFLPCENGGGSGGKSKAVEQVKNAFNKLQEKGIYKAMSEFDIFINYIEAYMTMKIRN
B5: Mut1 (IL-10 D28E, S31R, N45S, T155M) (ligand)
chain: MSPGQGTQSENSCTHFPGNLPNMLRDLREAFRRVKTFFQMKDQLDSLLLKESLLEDFKGYLGCQALSEMIQFYLEEVMPQAENQDPDIKAHVNSLGENLKTLRLRLRRCHRFLPCENKSKAVEQVKNAFNKLQEKGIYKAMSEFDIFINYIEAYMMMKIRN
B6: Mut2 (IL-10 D28E, S31K, N45S, T155M) (ligand)
chain: MSPGQGTQSENSCTHFPGNLPNMLRDLREAFKRVKTFFQMKDQLDSLLLKESLLEDFKGYLGCQALSEMIQFYLEEVMPQAENQDPDIKAHVNSLGENLKTLRLRLRRCHRFLPCENKSKAVEQVKNAFNKLQEKGIYKAMSEFDIFINYIEAYMMMKIRN

The binders below were run against T1, IL-10 receptors R1 and R2 on HEK-Blue … (assay: cell-based or functional assay).

B1 and B2 are within 1.5-fold of each other in “Apparent Kd (M) average (HEK-Blue IL-10 SEAP reporter, absorbance 630 nm, saturation binding fit)” value (shortened to “Apparent Kd (M) average”): 2.61e-11 M for the first, 1.9e-11 M for the second.

Compared with B3, B4 is 21-fold higher in “Apparent Kd (M) average” value: 1.2e-11 M for the first, 2.56e-10 M for the second.

First: B5
Second: B6
The “Apparent Kd (M) average” value of the first is 2.2-fold higher: 1.45e-10 M for the first, 6.45e-11 M for the second.

First: B1
Second: B2
The “Fold change-apparentKD (against IL-10 ORF)” value (“Fold change-apparentKD” for short) of the first is lower: 7.59 fold for the first, 10.4 fold for the second.

Going from B3 to B4, the “Fold change-apparentKD” value falls from 16.5 fold to 0.773 fold.

First: B5
Second: B6
The “Fold change-apparentKD” value of the first is lower: 1.37 fold for the first, 3.07 fold for the second.
